Data on 3 compounds can be found in US20080247947A1, “High dose 111In-pentetreotide therapy of neuroendocrine tumors” (priority 2007, published 2008).

The conditions of series [1]: cited from earlier work.
In series [2] the test system is carcinoid syndrome, advanced disease. The following applies: patients with advanced disease; cited from earlier work.
For a further series, the system named is carcinoid tumors. The following applies: cited from earlier work.
In series [3] the test system is patients with progressive neuroendocrine tumors. Kind of series: Non-randomized trial: hematological, renal and hepatic toxicities by NCI common toxicities criteria. The format is in vivo. The procedure: In a non-randomized trial, 32 patients (21 men and 11 women, from 16-83 years old (average 56 years old)) were tested. Among these patients, there were 25 Caucasions (78%), 2 Blacks (6%), 4 Hispanics (12.5%) and 1 other (3%). All patients had progressive neuroendocrine tumors (21 Carcinoma, 7 Islet Cell Carcinoma of the Pancreas, 1 Pituitary Adenoma, 1 Glucagonoma, and 1 Pheochromocytoma) and all had failed first line therapy (23 chemotherapy, 12 radiotherapy, and 28 surgery).
Fourteen patients received one therapy (ranging from 473.5 to 511.6 mCi, with an average of 489.2 mCi) and 18 patients received two treatments with the cumulative doses ranging from 955.1 to 1,006.1 mCi (average=982.8 mCi/patient). Patients were evaluated for evidence of hematological, renal and hepatic toxicities using NCI common toxicities criteria and followed for an average of 9 months (ranging from 1.7 to 17.2 months).
(§1) Patients were injected with ^111In-pentetreotide at an average dose of 489.2 mCi (ranging from 473.5 to 511.6 mCi) as an intravenous infusion in physiological saline using a specially designed IV pole to decrease radiation exposure to the personnel. The infusion took about 3 to 5 hours, in an outpatient setting. The amount of octreotide administered was 30 mg. Patients were evaluated for hematological, renal and hepatic toxicities using NCI common toxicities criteria on week 4, 5, 6, and 7 after treatment, and every three months thereafter. Patients were followed for an average of 8.69 months with a range of 1.7-17.2 months. 18 patients received a second treatment 10-12 weeks after the first therapy with an average cumulative dose of 982.8 mCi (ranging from 955.1 to 1006.1 mCi). These patients were evaluated for a clinical and metabolic responses beginning 4 weeks after their second therapy.

For series [4], the system named is progressive neuroendocrine tumors. Briefly: Non-randomized trial: clinical, metabolic and imaging response (RECIST) after two cycles. To be noted: 18 patients, two cycles of 500 mCi. The format is in vivo.
From the text: Among these patients, seventeen (53%) had grade I or II hematological toxicities, while one patient had grade III thrombocytopenia with nadir mean of 5 weeks (ranging from 4 to 6 weeks) after therapy (FIG. 2). These toxicities were transient, lasting from 1 to 6 weeks (averaging 3 weeks). […] One patient had grad II liver toxicity which appeared 4 weeks after the therapy and resolved in week 5. […] Among the 18 patients (13 men and 5 women, from 41 to 83 years old (average age 59)), who were treated with two cycles of high dose (500 mCi) ^111In-pentetreotide, therapeutic efficacy of this treatment regimen is evident (FIG. 3). These patient had progressive neuroendocrine tumors and failed first-line therapy. According to the pre-therapy diagnostic ^111In-pentetreotide scan, these patients had grade 3 to grade 5 tumors. In this trial, each dose of ^111In-pentetreotide was infused over a period of 3 to 6 hours. The two treatments were spaced a few weeks (e.g., […]) apart. The patients were monitored for clinical, metabolic, and imaging responses based on using Response Evaluation Criteria in Solid Tumors (RECIST) criteria (Therasse P, Arbuck S G, Eisenhauer E A, et al. New guidelines to evaluate the response to treatment in solid tumors. European Organization for Research and Treatment of Cancer, National Cancer Institute of the United States, National Cancer Institute of Canada. Journal of the National Cancer Institute 2000; 92(3):205-16.).
as §1
The efficacy of ^111In-pentetreotide therapy was evaluated in 18 patients who received two cycles of therapy. The primary endpoint was clinical, metabolic and imaging response using RECIS criteria. […] Tumor image before and after treatment showing no progression (FIG. 6).

For the next series, the system named is disseminated NETs. To be noted: 16 patients, repeated doses 81-134 mCi, cited from earlier work.
The next series deals with NETs. The following applies: 180 mCi every 3 weeks for 10 occasions; cited from earlier work.
Where [5] appears, read: 18 patients, double-dose treatments.
The mark [6] stands for this setting: 32 patients, one or two cycles of about 500 mCi.

Entries after “also recorded” stand apart in the source; their conditions may differ.

As for `C[C@@H](O)[C@@H]1NC(=O)[C@H](CCCCN)NC(=O)[C@@H](Cc2c[nH]c3ccccc23)NC(=O)[C@H](Cc2ccccc2)NC(=O)[C@@H](NC(=O)[C@H](N)Cc2ccccc2)CSSC[C@@H](C(=O)N[C@H](CO)[C@@H](C)O)NC1=O` [octreotide], the in vivo half-life in series [1] is 1.5 to 2 h. The “tumor stabilization, patients” value in series [2] was 50-55%.

Take Interferon [Interferon (IFN)]: in the series on carcinoid tumors (carcinoid tumors), the biochemical response rate is recorded as 40% and the tumor response rate is 12%. In addition, the toxicity entry with carcinoid tumors (fever, anorexia, weight loss, fatigue and myelosuppression) is “significant toxicity”.

Turning to “[^111In-DTPA-D-Phe1]-octreotide [^111In-pentetreotide]”, the nose bleeds result in series [3] (4 weeks after treatment) is on record as “One patient”. In addition, in series [3] (18 patients, double-dose (two cycles of 500 mCi)), the “patients with grade I or grade II hematological toxicities” value stood at 55%. In series [3] (setting [5]), the “duration of hematological toxicities” value is 1-6 weeks, the “grade III thrombocytopenia” value was “one patient”, the “nadir mean after therapy” value amounted to 5 weeks and the “need for supportive therapy” value is “None of the patients required supportive therapy”. Moreover, in series [3] (18 patients, double-dose treatments, follow-up 3.93 to 17.23 months), the renal toxicity result is “No renal toxicity was observed”. For the same compound, the “grade II liver toxicities” value in series [3] (18 patients, double-dose treatments, appeared 4 weeks after therapy, resolved on week 5) was “One patient”. For the same compound, in series [3] (32 patients, follow-up 1.7 to 17.2 months), the renal toxicity result was “no evidence of renal toxicity; also recorded: No significant short or long term renal toxicity”. Also, in series [3] (32 patients, one or two cycles), the “need for supportive therapy” value is recorded as “None of the patients required supportive therapy”. In addition, in series [3] (setting [6]), the “duration of hematological toxicities (average)” value is listed as 3 weeks, the “grade III thrombocytopenia” value is given as “one patient” and the “nadir mean of hematological toxicity after therapy” value came to 5 weeks. Besides, in series [3] (32 patients, one or two cycles of about 500 mCi, intravenous infusion), the “patients with grade I or II hematological toxicities” value is reported as 53%. Moreover, the “grade II liver toxicity” value in series [3] (32 patients, appeared 4 weeks after therapy, resolved in week 5) is “One patient”. Further, the “deaths during the course of the study” value in series [3] (32 patients, deaths attributed to tumor burden) is “Two patients died”. Moreover, the maximum tolerated dose result in series [3] (average cumulative dose 982.8 mCi, average follow up 8.69 months) is “maximum tolerated dose has not been reached”. Further, the “overall treatment associated toxicity” value in series [3] (following one or two cycles) is reported as “no evidence of significant treatment associated toxicity”. Also, in series [4], the “clinical response (functional living index questionnaire and physical examination), patients” value turned out to be 84%; the “metabolic response (25% or more decline in chromogranin or other markers), patients” value is given as 72%; the “patients achieving stable disease by imaging criteria” value came to 88%; the “patients achieving stable disease by imaging criteria (count)” value is reported as “sixteen out of the 18”. For the same compound, the “patients with sustained benefit” value in the series on disseminated NETs (18 months after the treatments) is reported as 31%. Moreover, the “patients with some short term benefits” value in the series with disseminated NETs is listed as “up to 70%”. Further, in the series with NETs, the “safety of repeated doses” value is on record as “demonstrated the safety”.
